Changes are numbered by the printed parent chain.
B1: VH1 + VL3 (antibody, V domains shown)
VH: QVQLVQSGAEVKKPGSSVKVSCKASGYAFSNFWMNWVRQAPGQGLEWMGQIYPGDGDTNYNGKFKGRVTITADKSTSTAYMELSSLRSEDTAVYYCARSYYRSAWFAYWGQGTLVTVSS
VL: EIVLTQSPATLSLSPGERATLSCRASQSIGTSIHWYQQKPGQAPRLLIYYASESISGIPARFSGSGSGTDFTLTISSLEPEDFAVYYCQQSNNWPLTFGGGTKVEIK
B2: VH2 + VL3 (antibody, V domains shown)
VH: B1 VH with S16A, I70M, A72R, K74T, A79V
VL: B1 VL
B3: VH5 + VL2 (antibody, V domains shown)
VH: EVQLVQSGAEVKKPGESLKISCKGSGYAFSNFWMNWVRQMPGKGLEWMGQIYPGDGDTNYNGKFKGQVTISADKSISTAYLQWSSLKASDTAMYYCARSYYRSAWFAYWGQGTLVTVSL
VL: B1 VL with L4M, L13V, D70E, E79Q, P80S
B4: VH1 + VL4 (antibody, V domains shown)
VH: B1 VH
VL: AIQLTQSPSSLSASVGDRVTITCRASQSIGTSIHWYQQKPGKAPKLLIYYASESISGVPSRFSGSGSGTDFTLTISSLQPEDFATYYCQQSNNWPLTFGGGTKVEIK
B5: VH5 + VL3 (antibody, human IgG1, kappa, V domains shown)
VH: EVQLVQSGAEVKKPGESLKISCKGSGFTFNYFWIEWVRQMPGKGLEWMGEILPGTGSTNYNEKFKGQVTISADKSISTAYLQWSSLKASDTAMYYCARYDYTSSMDYWGQGTLVTVSS
VL: EIVLTQSPATLSLSPGERATLSCRASESVQYSGTSLMHWYQQKPGQAPRLLIYGASNVETGIPARFSGSGSGTDFTLTISSLEPEDFAVYYCQQNWKVPWTFGQGTKVEIKR
notes: Full-length humanized IgG expressed in HEK293 and purified on protein A. Constant regions not specified; also called #23 (inferred from 5x5 numbering)
B6: Chimeric IgG (antibody, V domains shown)
VH: QVQLQQSGAELMKPGASVKISCKAIGFTFNYFWIEWVKQRPGHGLEWIGEILPGTGSTNYNEKFKGKAIFTADTSSNTAYMQLRSLTSEDSAVYYCVRYDYTSSMDYWGQGTSVTVSS
VL: DIVLTQSPGSLAVSLGQSVTISCRASESVQYSGTSLMHWYQQKPGQPPKLLIYGASNVETGVPARFSGSGSGTDFSLNIHPVEEDDIAMYFCQQNWKVPWTFGGGTKLEIKR
notes: Chimera of the parental mouse antibody with a human Fc (captured by anti-human Fc); also called chimeric antibody; parent chimeric antibody

target: T1, MUC1 on HCT116/MUC1 cells (human, UniProt P15941 24-1255); assay: flow cytometry on HCT116/MUC1 cells; antibody at 0.137174 nM
T1 sequence (P15941 24-1097, chain 1 of 2): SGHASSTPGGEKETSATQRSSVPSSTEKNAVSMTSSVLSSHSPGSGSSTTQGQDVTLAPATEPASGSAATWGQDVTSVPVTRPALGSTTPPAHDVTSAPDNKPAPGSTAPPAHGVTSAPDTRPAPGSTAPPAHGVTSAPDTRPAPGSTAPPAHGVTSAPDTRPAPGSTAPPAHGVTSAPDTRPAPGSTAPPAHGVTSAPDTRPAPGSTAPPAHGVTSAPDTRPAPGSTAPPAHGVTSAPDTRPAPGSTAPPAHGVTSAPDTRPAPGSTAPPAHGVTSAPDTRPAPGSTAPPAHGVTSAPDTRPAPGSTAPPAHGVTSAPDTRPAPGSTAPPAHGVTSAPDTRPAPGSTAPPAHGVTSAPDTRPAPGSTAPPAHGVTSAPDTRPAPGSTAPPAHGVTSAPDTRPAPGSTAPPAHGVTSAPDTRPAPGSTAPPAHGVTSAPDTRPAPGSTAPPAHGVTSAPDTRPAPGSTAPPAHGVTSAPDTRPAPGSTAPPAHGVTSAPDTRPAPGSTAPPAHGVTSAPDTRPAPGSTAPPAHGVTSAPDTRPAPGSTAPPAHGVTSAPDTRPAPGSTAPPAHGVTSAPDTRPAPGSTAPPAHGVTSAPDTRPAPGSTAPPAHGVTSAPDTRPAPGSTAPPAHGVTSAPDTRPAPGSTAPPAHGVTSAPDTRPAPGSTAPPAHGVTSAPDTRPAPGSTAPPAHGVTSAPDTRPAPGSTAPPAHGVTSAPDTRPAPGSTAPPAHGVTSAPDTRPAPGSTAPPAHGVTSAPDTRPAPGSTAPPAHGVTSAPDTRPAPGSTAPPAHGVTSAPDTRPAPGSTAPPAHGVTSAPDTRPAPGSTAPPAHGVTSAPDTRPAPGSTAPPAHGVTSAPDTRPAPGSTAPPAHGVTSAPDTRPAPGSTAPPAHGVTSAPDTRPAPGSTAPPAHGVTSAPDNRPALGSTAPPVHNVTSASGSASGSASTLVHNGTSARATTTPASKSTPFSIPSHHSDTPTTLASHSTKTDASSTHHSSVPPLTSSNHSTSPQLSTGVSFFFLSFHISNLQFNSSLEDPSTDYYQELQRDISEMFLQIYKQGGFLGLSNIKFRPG
T1 sequence (P15941 1098-1255, chain 2 of 2): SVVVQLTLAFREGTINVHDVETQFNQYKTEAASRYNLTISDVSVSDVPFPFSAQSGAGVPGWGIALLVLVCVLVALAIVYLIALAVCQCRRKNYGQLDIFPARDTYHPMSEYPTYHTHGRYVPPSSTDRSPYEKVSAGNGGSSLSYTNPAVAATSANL

Binder | FACS titration signal
B1 | 9.47
B2 | 9.04
B3 | 9.2
B4 | 5.5

target: T2, MUC1 on HCT116/MUC1 cells (human, UniProt P15941 24-1255); assay: flow cytometry titration on HCT116/MUC1 cells
T2 construct: whole, on cells; Human colon cancer cell line engineered to express MUC1
Experimental: (§1) FACS titration of humanized antibodies. For affinity ranking of humanized antibodies to HCT116/MUC1 cells (a human colon cancer cell line engineered to express MUC1), the purified antibodies were subject to FACs titration. In brief, HCT116/MUC1 cells were cultured and harvested by centrifugation. About 2.5×10⁵ cells per well were washed with PBS twice and incubated in 200 μl of serial dilutions of antibodies for 30 min at 4° C. After washing with PBS., secondary antibody (3 μg Goat anti-Human IgG(H+L) I Fluor 647) was added to the cells and incubated for 30 min at 4° C. After washing with PBS, cells were analyzed for binding (EC₅₀) by using FACS Calibur (BD Bioscience, San Jose, Calif.) and Flowjo software.
(§2) FACS titration of humanized antibodies. Each of the 7 antibodies was titrated for its binding capacity to HCT116/MUC1 cells at various concentrations and the results are mentioned in Table 8 and with a graphical representation in FIG. 5.
T2 sequence (P15941 24-1255): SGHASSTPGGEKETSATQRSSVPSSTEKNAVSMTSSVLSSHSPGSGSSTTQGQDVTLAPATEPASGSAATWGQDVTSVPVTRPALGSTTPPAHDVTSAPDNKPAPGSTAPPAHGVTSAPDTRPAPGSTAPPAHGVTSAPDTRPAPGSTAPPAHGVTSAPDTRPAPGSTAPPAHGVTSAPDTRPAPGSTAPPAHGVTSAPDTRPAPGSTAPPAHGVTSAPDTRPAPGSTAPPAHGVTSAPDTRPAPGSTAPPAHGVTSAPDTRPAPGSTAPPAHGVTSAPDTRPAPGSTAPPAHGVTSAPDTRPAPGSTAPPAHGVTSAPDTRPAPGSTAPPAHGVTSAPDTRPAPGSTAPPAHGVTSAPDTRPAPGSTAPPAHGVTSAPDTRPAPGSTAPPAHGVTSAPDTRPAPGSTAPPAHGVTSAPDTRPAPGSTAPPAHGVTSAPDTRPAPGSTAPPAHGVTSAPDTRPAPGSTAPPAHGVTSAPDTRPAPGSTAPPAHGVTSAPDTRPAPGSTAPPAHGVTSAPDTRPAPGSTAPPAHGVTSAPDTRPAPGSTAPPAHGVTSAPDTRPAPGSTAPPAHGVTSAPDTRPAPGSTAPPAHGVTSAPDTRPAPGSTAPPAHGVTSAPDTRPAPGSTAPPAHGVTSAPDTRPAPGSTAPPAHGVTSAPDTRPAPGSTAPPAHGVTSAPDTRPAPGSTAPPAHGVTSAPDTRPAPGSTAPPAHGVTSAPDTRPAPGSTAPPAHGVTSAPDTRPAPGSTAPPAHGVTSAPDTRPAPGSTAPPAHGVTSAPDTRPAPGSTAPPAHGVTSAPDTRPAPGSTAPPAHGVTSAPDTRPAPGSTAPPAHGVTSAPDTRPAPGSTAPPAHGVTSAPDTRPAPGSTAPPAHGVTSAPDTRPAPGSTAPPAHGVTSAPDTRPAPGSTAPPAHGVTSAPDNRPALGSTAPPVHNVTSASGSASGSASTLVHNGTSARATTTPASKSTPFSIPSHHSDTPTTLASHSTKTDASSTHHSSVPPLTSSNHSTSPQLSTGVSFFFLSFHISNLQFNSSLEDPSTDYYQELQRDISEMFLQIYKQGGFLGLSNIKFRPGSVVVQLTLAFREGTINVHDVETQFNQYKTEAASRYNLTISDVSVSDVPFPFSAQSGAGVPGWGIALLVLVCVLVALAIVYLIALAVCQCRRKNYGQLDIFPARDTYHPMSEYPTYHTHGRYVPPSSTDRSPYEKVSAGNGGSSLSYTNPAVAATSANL

Binder | EC50 [nM]
B5 | 12.2
B6 | 6.08

target: T1, MUC1 on HCT116/MUC1 cells; assay: flow cytometry titration on HCT116/MUC1 cells
Experimental: as §1, §2

Binder | EC50 [nM]
B1 | 13.2
B2 | 13.3
B3 | 7.69
B4 | 9.8

target: T1, MUC1 on HCT116/MUC1 cells; assay: flow cytometry on HCT116/MUC1 cells; antibody at 3.703704 nM

Binder | FACS titration signal
B1 | 10.4
B2 | 13.9
B3 | 17.3
B4 | 16.6

target: T1, MUC1 on HCT116/MUC1 cells; assay: flow cytometry on HCT116/MUC1 cells; antibody at 33.33333 nM

Binder | FACS titration signal
B1 | 41
B2 | 43
B3 | 48.1
B4 | 57.8

target: T1, MUC1 on HCT116/MUC1 cells; assay: flow cytometry on HCT116/MUC1 cells; antibody at 100 nM

Binder | FACS titration signal
B1 | 41.7
B2 | 43.8
B3 | 48.9
B4 | 56.2

target: T1, MUC1 on HCT116/MUC1 cells; assay: flow cytometry on HCT116/MUC1 cells; antibody at 0.015242 nM

Binder | FACS titration signal
B1 | 5.76
B2 | 8.96
B3 | 5.88
B4 | 5.73

target: T1, MUC1 on HCT116/MUC1 cells; assay: flow cytometry on HCT116/MUC1 cells; antibody at 1.234568 nM

Binder | FACS titration signal
B1 | 7.09
B2 | 10.6
B3 | 11.8
B4 | 7.61

target: T1, MUC1 on HCT116/MUC1 cells; assay: flow cytometry on HCT116/MUC1 cells; antibody at 0.045725 nM

Binder | FACS titration signal
B1 | 8.96
B2 | 5.46
B3 | 6.76
B4 | 5.99

target: T1, MUC1 on HCT116/MUC1 cells; assay: flow cytometry on HCT116/MUC1 cells; antibody at 0.411523 nM

Binder | FACS titration signal
B1 | 6.22
B2 | 6.48
B3 | 9.71
B4 | 10.1

target: T1, MUC1 on HCT116/MUC1 cells; assay: flow cytometry on HCT116/MUC1 cells; antibody at 300 nM

Binder | FACS titration signal
B1 | 42
B2 | 44.1
B3 | 46.3
B4 | 53.9

target: T1, MUC1 on HCT116/MUC1 cells; assay: flow cytometry on HCT116/MUC1 cells; antibody at 11.11111 nM

Binder | FACS titration signal
B1 | 20.2
B2 | 21.5
B3 | 33.4
B4 | 32.3
